“And” between values parts separate entries of the source, which are not always exact repeats. Equal values may be shown once.
Legend:
[1] = molecular target: β-amyloid peptide (1-42) conjugated to BSA (bovine) (UniProt P05067); experiment: competition ELISA, BSA-β-amyloid peptide coated, against biotinylated Mu266 (0.6 µg/ml); average of three, N56T series
[2] = molecular target: β-amyloid peptide (1-42) conjugated to BSA (bovine) (UniProt P05067); experiment: competition ELISA, BSA-β-amyloid peptide coated, against biotinylated Mu266 (0.6 µg/ml); Exp. I, N56S series
[3] = molecular target: β-amyloid peptide (1-42) conjugated to BSA (bovine) (UniProt P05067); experiment: competition ELISA, BSA-β-amyloid peptide coated, against biotinylated Mu266 (0.6 µg/ml); Exp. III, N56S series
[4] = molecular target: β-amyloid peptide (1-42) conjugated to BSA (bovine) (UniProt P05067); experiment: competition ELISA, Aβ1-42-BSA coated, against biotinylated Mu266 (0.3 µg/ml); mean of three experiments, second set
[5] = molecular target: β-amyloid peptide (1-42) conjugated to BSA (bovine) (UniProt P05067); experiment: competition ELISA as in Example 7, against biotinylated Mu266; mean, N=3
[6] = molecular target: β-amyloid peptide (1-42) conjugated to BSA (bovine) (UniProt P05067); experiment: competition ELISA, BSA-β-amyloid peptide coated, against biotinylated Mu266 (0.6 µg/ml); Exp. II, N56S series
[7] = molecular target: β-amyloid peptide (1-42) conjugated to BSA (bovine) (UniProt P05067); experiment: competition ELISA, BSA-β-amyloid peptide coated, against biotinylated Mu266 (0.6 µg/ml); Exp. II, N56T series
[8] = molecular target: β-amyloid peptide (1-42) conjugated to BSA (bovine) (UniProt P05067); experiment: competition ELISA, Aβ1-42-BSA coated, against biotinylated Mu266 (0.3 µg/ml); mean of three experiments, first set
[9] = molecular target: β-amyloid peptide (1-42) conjugated to BSA (bovine) (UniProt P05067); experiment: competition ELISA, BSA-β-amyloid peptide coated, against biotinylated Mu266 (0.6 µg/ml); average of three, N56S series
[10] = molecular target: β-amyloid peptide (1-42) conjugated to BSA (bovine) (UniProt P05067); experiment: competition ELISA, BSA-β-amyloid peptide coated, against biotinylated Mu266 (0.6 µg/ml); Exp. I, N56T series
[11] = molecular target: β-amyloid peptide (1-42) conjugated to BSA (bovine) (UniProt P05067); experiment: competition ELISA as in Example 7, against biotinylated Mu266; N=1
Amyloid-beta 1-42 = Amyloid-beta 1-42 (UniProt P05067); experiment: SPR, BIAcore 2000; antibody captured, Aβ flowed over
Amyloid-beta 1-40 = Amyloid-beta 1-40 (UniProt P05067); experiment: as above
[12] = molecular target: β-amyloid peptide (1-42) conjugated to BSA (bovine) (UniProt P05067); experiment: competition ELISA, BSA-β-amyloid peptide coated, against biotinylated Mu266 (0.6 µg/ml); Exp. III, N56T series

IC50 [1]: 5.7 µg/mL
IC50 [2]: 3.8 µg/mL
IC50 [3]: 6.1 µg/mL
IC50 [4]: 3.87 µg/mL
IC50 [5]: 7.6 µg/mL and 14 µg/mL
IC50 [6]: 4.5 µg/mL
IC50 [7]: 6.4 µg/mL
IC50 [8]: 4.7 µg/mL
IC50 [9]: 4.8 µg/mL
IC50 [10]: 4.3 µg/mL
IC50 [11]: 3.8 µg/mL and 7.1 µg/mL
Kd (Amyloid-beta 1-42): 4 pM
Kd (Amyloid-beta 1-40): 4 pM
IC50 [12]: 6.4 µg/mL
Substance: Mouse monoclonal antibody 266
